Source: patent US20170226203A1 (Daiichi Sankyo, published 2017)

B1: mouse anti-human Orai1 antibody 10F8 (antibody, mouse IgG1, kappa, V domains shown)
VH: QVQLQQSGAELVRPGSSVKISCKASGYAFRSYWMNWVKQRPGQGLEWIGHIYPGDGDTNYNGKFKGKATLTADKSSSTAYMQLSSLTSEDSAVYLCGRGGTTVVVDYWGQGTTLTVSS
VL: DIVMSQSPSSLAVSAGEKVTMSCKSSQSLLNSRTRKNYLAWYQQKPGQSPKLLIYWASTRESGVPDRFTGSGSGTDFTLTISSVQAEDLAVYYCKQSYNLPWTFGGGTKLEIKR
B2: human anti-human Orai1 antibody 2C1.1 (antibody, human IgG2, lambda, V domains shown)
VH: QVQLQQWGAGLLKPSETLSLTCAVYGGSFSGYYWSWIRQPPGKGLEWIGEIDHSGSTNYNPALKSRLTISVDTSKNQFSLKLSSVTAADTAVYYCARAGSGGYEDWFDPWGQGTLVTVSS
VL: QSVLTQPPSVSGAPGQRVTISCTGSSSNIGAGYNVHWYQQFPRTDPKLLIYVYNIRPSGVPDRFSGSRSGTSASLAITGLQTEDEADYYCQSYDSSLSGVVFGGGTKLTVLG
B3: human anti-human Orai1 antibody 5H3.1 (antibody, human IgG2, lambda, V domains shown)
VH: QVQLVQSGAEVKKPGASVKVSCKASGYTFTDYYMNWVRQAPGQGLEWMGWINPNSGGTKYAQKFQGRVTMTRDTSIRTAYMELSRLRSDDTAVYYCAREYGGNSDWFDPWGQGTLVTVSS
VL: QSVLTQPPSVSGAPGQRVTISCTGSSSNIGAGYDVHWYQQLPGTAPKLLIYGNSNRPSGVPDRFSGSKSGTSASLAITGLQAEDEADYYCQSYDNRLSDSVVIGGGTKLAVQG
B4: affinity maturation antibody hR198_HG1/LG1 (antibody, human IgG1, kappa)
heavy: not shown
light: DIQLTQSPSSLSASVGDRVTITCRASQSIGGSLSWFQQKPGKAPKRLIYSTSTLESGVPSRFSGSGSGTDYTLTISSLQPEDFAMYYCLQFAIFPDSFGQGTKVEIKRTVAAPSVFIFPPSDEQLKSGTASVVCLLNNFYPREAKVQWKVDNALQSGNSQESVTEQDSKDSTYSLSSTLTLSKADYEKHKVYACEVTHQGLSSPVTKSFNRGEC
B5: hR198_HG1-LALA/LG1 (antibody, human IgG1, kappa, L234A L235A)
heavy: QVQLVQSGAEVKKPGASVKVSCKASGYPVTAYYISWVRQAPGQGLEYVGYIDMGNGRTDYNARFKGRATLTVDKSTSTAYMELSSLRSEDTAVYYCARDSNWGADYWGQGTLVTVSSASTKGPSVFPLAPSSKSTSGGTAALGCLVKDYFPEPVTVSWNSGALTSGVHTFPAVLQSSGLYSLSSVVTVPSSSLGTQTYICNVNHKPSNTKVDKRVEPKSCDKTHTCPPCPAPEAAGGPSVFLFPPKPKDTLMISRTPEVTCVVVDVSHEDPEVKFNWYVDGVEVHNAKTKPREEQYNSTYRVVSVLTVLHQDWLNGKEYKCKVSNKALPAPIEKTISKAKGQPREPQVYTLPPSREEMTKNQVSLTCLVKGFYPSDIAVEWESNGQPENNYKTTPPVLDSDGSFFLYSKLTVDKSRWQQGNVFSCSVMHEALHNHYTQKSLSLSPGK
light: DIQLTQSPSSLSASVGDRVTITCRASQSIGGSLSWFQQKPGKAPKRLIYSTSTLESGVPSRFSGSGSGTDYTLTISSLQPEDFAMYYCLQFAIFPDSFGQGTKVEIKRTVAAPSVFIFPPSDEQLKSGTASVVCLLNNFYPREAKVQWKVDNALQSGNSQESVTEQDSKDSTYSLSSTLTLSKADYEKHKVYACEVTHQGLSSPVTKSFNRGEC
B6: humanized anti-human Orai1 antibody hR198_H4/L4 (antibody, human IgG1, kappa, V domains shown)
VH: QVQLVQSGAEVKKPGASVKVSCKASGYPVTAYYISWIRQAPGQGLEYVGYIDMGNGRTNYNARFKGRATLTVDKSTSTAYMELSSLRSEDTAVYYCARDSNWGVDYWGQGTLVTVSS
VL: DIQLTQSPSSLSASVGDRVTITCRASQSIGNSLSWFQQKPGKAVKRLIYSTSTLESGVPSRFSGSGSGTDYTLTISSLQPEDFAMYYCLQFATFPDTFGQGTKVEIKR
notes: Human IgG1 / kappa; also called hH4/L4
B7: parent antibody Fab hR198_H4/L4-Fab (Fab, V domains shown)
VH: QVQLVQSGAEVKKPGASVKVSCKASGYPVTAYYISWIRQAPGQGLEYVGYIDMGNGRTNYNARFKGRATLTVDKSTSTAYMELSSLRSEDTAVYYCARDSNWGVDYWGQGTLVTVSS
VL: DIQLTQSPSSLSASVGDRVTITCRASQSIGNSLSWFQQKPGKAVKRLIYSTSTLESGVPSRFSGSGSGTDYTLTISSLQPEDFAMYYCLQFATFPDTFGQGTKVEI
notes: Fab of hR198_H4/L4
B8: mouse anti-human Orai1 antibody 14F74 (antibody, mouse IgG1, kappa, V domains shown)
VH: QVQLQQSGAELVRPGSSVKISCKASGYAFSSYWMNWVKQRPGQGLEWIGHIYPGDGDTNYNGKFKGKATLTADKSSSTAYMQLSGLTSEDSAVYFCARSGRLRFAMDYWGQGTSVTVSS
VL: DIVMSQSPSSLAVSAGEKVTMSCKSSQSLLNSRTRKNYLAWYQQKPGQSPKLLIYWASTRESGVPDRFTGSGSGTDFTLTISSVQAEDLAVYYCKQSYNLRTFGGGTKLEIQR
B9: mouse anti-human Orai1 antibody 17F6 (antibody, mouse IgG1, kappa, V domains shown)
VH: QVQLQQSGAELVRPGSSVKISCKASGYAFSSYWMNWVKQRPGQGLEWIGHIYPGDADTNYNGKFKGKATLTADKSSSTAYMHLSSLTSEDSAVYFCSRQLGFRYAMDYWGQGTSVTVSS
VL: DIVMSQSPSSLAVSAGEKVTMSCKSSQSLLNSRTRKNYLAWYQQKPGQSPKLLIYWASTRESGVPDRFTGSGSGTDFTLTISSVQAEDLAVYYCKQSYNLRTFGGGTKLEIKR

Tests used:
human Orai1 [1] = target: T1, human Orai1 (human, UniProt Q96D31 1-301); experiment: cell-based or functional assay
human Orai1 [2] = target: T1, human Orai1; experiment: flow cytometry, pcDNA3.1-hOrai1 transfected HEK293T cells

T1 sequence (Q96D31 whole entry): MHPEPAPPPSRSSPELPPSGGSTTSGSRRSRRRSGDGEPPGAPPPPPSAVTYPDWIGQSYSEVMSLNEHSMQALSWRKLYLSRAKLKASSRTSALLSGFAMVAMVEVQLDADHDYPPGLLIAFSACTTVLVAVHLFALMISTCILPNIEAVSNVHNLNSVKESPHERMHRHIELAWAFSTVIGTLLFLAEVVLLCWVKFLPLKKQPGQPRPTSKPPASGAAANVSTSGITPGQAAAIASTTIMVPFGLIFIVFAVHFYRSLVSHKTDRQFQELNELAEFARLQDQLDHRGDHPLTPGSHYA

IC50, IFN-γ release from human PBMC treated with PMA and A23187 (human Orai1 [1])	IC50, IL-2 release from Jurkat cells treated with PMA and A23187 (human Orai1 [1])	IC50, IL-2 release from human PBMC treated with PMA and A23187 (human Orai1 [1])	IC80, IFN-γ release from human PBMC treated with PMA and A23187 (human Orai1 [1])	IC80, IL-2 release from Jurkat cells treated with PMA and A23187 (human Orai1 [1])	IC80, IL-2 release from human PBMC treated with PMA and A23187 (human Orai1 [1])	binding result (human Orai1 [2])	Binder
≥ 0.8 µg/mL	≥ 0.08 µg/mL	≥ 0.1 µg/mL	≥ 300 µg/mL	≥ 60 µg/mL	≥ 17 µg/mL		B1
≥ 0.8 µg/mL	≥ 0.08 µg/mL	≥ 0.1 µg/mL	≥ 300 µg/mL	≥ 60 µg/mL	≥ 17 µg/mL		B2
≥ 0.8 µg/mL	≥ 0.08 µg/mL	≥ 0.1 µg/mL	≥ 300 µg/mL	≥ 60 µg/mL	≥ 17 µg/mL		B3
≤ 0.04 µg/mL	≤ 0.01 µg/mL	≤ 0.02 µg/mL	≤ 2 µg/mL	≤ 0.2 µg/mL	≤ 0.4 µg/mL		B4
≤ 0.04 µg/mL	≤ 0.01 µg/mL	≤ 0.02 µg/mL	≤ 2 µg/mL	≤ 0.2 µg/mL	≤ 0.4 µg/mL		B5
						binds	B6
						binds	B7
≥ 0.8 µg/mL	≥ 0.08 µg/mL	≥ 0.1 µg/mL	≥ 300 µg/mL	≥ 60 µg/mL	≥ 17 µg/mL		B8
≥ 0.8 µg/mL	≥ 0.08 µg/mL	≥ 0.1 µg/mL	≥ 300 µg/mL	≥ 60 µg/mL	≥ 17 µg/mL		B9
